In PMC5100602 one finds Kd data, which are given here for one substance.

This data set addresses Gk-S15 (ribosomal protein S15) (Geobacillus kaustophilus) (UniProt Q5L0I3). Put plainly: filter binding. The note with it: SELEX Binding Buffer A: 50 mM Tris/acetate pH 7.5, 20 mM Mg-acetate, 270 mM KCl, 5 mM DTT, 0.02% BSA, 25 C, 30 min; filter binding (nitrocellulose/nylon) as ….

In general, Kd refers to the equilibrium constant for the complex coming apart. On to Gk-mRNA, for which the Kd is 0.7 nM.
